# Laboratory results published in the supplement of paper PMC10567573.
# B1: RIT1 (parent)
# chain: FHALVREIRRKEKEAVLAMEKKSK
# B2: MMP1 (parent)
# chain: MFFKDRFYMRTNPFYPEVELNFIS
# Variants of: B1
# Assay: protein stability index of a GFP-peptide fusion (GPS, HEK-293T) (PSI 1-6); higher = more stable
# Conditions: c terminus: a fixed tail appended
# 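Further: lentivirally expressed fusions sorted by FACS into six bins by GFP to DsRed ratio, PSI derived from sequencing read proportions per bin multiplied by bin number.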
row,Variant,protein stability index
1,FHALVREIRRKEKEALLAMEKKSK,2.05
2,FHALVREIRRKEKEASLAMEKKSK,2.64
3,FHALVREIRRYEKEAVLAMEKKSK,1.64
4,FHALVREIRRSEKEAVLAMEKKSK,1.58
5,FHALVREIRRQEKEAVLAMEKKSK,2.47
6,FHALVREIRRAEKEAVLAMEKKSK,1.47
7,FHALVREIRRMEKEAVLAMEKKSK,2.69
8,FHALVREIRREEKEAVLAMEKKSK,2.07
9,HHALVREIRRKEKEAVLAMEKKSK,4.2
10,WHALVREIRRKEKEAVLAMEKKSK,2.43
11,PHALVREIRRKEKEAVLAMEKKSK,4.61
12,KHALVREIRRKEKEAVLAMEKKSK,4.06
13,CHALVREIRRKEKEAVLAMEKKSK,3.53
14,THALVREIRRKEKEAVLAMEKKSK,4.16
15,FHALVREIRRKEKEAVLAMEKKDK,1.72
16,FHALVREIRRKEKEAVLAMEKKEK,1.7
17,FHALVREIRRKEKEAVLAMEKKQK,2.22
18,FHALVREIRRKEKEAVLAMEKKVK,1.33
19,FHALVREIRRKEKEAVLAMEKKIK,1.76
20,FHALVREIRRKEKEAVLAMEKKNK,1.64
21,FHALVRNIRRKEKEAVLAMEKKSK,2.44
22,FHALVRKIRRKEKEAVLAMEKKSK,1.36
23,FHALVRGIRRKEKEAVLAMEKKSK,1.62
24,FHALVRAIRRKEKEAVLAMEKKSK,2.79
25,FHALVRFIRRKEKEAVLAMEKKSK,1.82

row,Variant,protein stability index
1,FHALVRLIRRKEKEAVLAMEKKSK,4.8
2,FHALVRTIRRKEKEAVLAMEKKSK,1.5
3,FHALVRHIRRKEKEAVLAMEKKSK,1.97
4,FHALVRCIRRKEKEAVLAMEKKSK,2.16
5,FHMLVREIRRKEKEAVLAMEKKSK,1.96
6,FHVLVREIRRKEKEAVLAMEKKSK,1.69
7,FHQLVREIRRKEKEAVLAMEKKSK,2.45
8,FHFLVREIRRKEKEAVLAMEKKSK,2.34
9,FHALVREIRRKEAEAVLAMEKKSK,2.04
10,FHALVREIRRKEEEAVLAMEKKSK,1.08
11,FHALVREIRRKEFEAVLAMEKKSK,2.27
12,FHALVREIRRKELEAVLAMEKKSK,3.67
13,FHALVREIRRKEIEAVLAMEKKSK,3.75
14,FHALVREIRRKEPEAVLAMEKKSK,2.32
15,FHALVREIRRKEKEAVLMMEKKSK,2.08
16,FHALVREIRRKEKEAVLAFEKKSK,2.23
17,FHALVREIRRKEKEAVLANEKKSK,2.14
18,FHALVREIRRKEKEAVLAIEKKSK,1.24
19,FHALVREIRRKEKEAVLAPEKKSK,1.7
20,FHALVREIRRKEKEAVLAREKKSK,2.3
21,FHALVREIRRKEKEAVLAHEKKSK,1.35
22,FHALGREIRRKEKEAVLAMEKKSK,2.14
23,FHALVREIRRKEKEQVLAMEKKSK,2.19
24,FHALVREIRRKEKELVLAMEKKSK,1.63
25,FHALVREIRRKEKEVVLAMEKKSK,2.4

row,Variant,protein stability index
1,FHALVREIRRKEKEDVLAMEKKSK,2.3
2,FHALVREIRRKEKEGVLAMEKKSK,1.91
3,FHALVREIRRKEKEAVLAMEKKSF,1.77
4,FHALVREIRRKEKEAVLAMEKKSW,1.24
5,FHALVREIRRKEKEAVLAMEKKST,1.34
6,FHALVREIRRKEKEAVLAMEKKSV,1.46
7,FHALVREIRRKEKEAVQAMEKKSK,1.88
8,FHALVREIRRKEKEAVCAMEKKSK,2.16
9,FHALVREIRRKEKEAVSAMEKKSK,1.88
10,FHALVREIRRKEKEAVIAMEKKSK,2.1
11,FHALVREIRRKEKEAVAAMEKKSK,1.85
12,FHALVREIRRKEKEAVYAMEKKSK,2.05
13,FHALVREIRRKEKEAVVAMEKKSK,1.47
14,FHALVREIRRKEKEAVTAMEKKSK,2.21
15,FHALVREIRRKEKEAVNAMEKKSK,2.18
16,FHALVREDRRKEKEAVLAMEKKSK,3.15
17,FHALVREGRRKEKEAVLAMEKKSK,2.23
18,FHALVREQRRKEKEAVLAMEKKSK,2.47
19,FHALVREWRRKEKEAVLAMEKKSK,2.35
20,FHALVREFRRKEKEAVLAMEKKSK,2.34
21,FHALVREERRKEKEAVLAMEKKSK,2.87
22,FHALVREICRKEKEAVLAMEKKSK,1.72
23,FHALVREINRKEKEAVLAMEKKSK,2.23
24,FHALVREIARKEKEAVLAMEKKSK,1.82
25,FHALVREIKRKEKEAVLAMEKKSK,1.77

row,Variant,protein stability index
1,FHALVREIMRKEKEAVLAMEKKSK,2.03
2,FHALVREIRRKEKKAVLAMEKKSK,2.89
3,FHALVREIRRKEKIAVLAMEKKSK,1.85
4,FHALVREIRRKEKCAVLAMEKKSK,1.58
5,FHALVREIRRKEKEAVLAMEKMSK,2.34
6,FHALVREIRRKEKEAVLAMEKGSK,1.83
7,FHALVREIRRKEKEAVLAMEKWSK,1.46
8,FHALVREIRRKEKEAVLAMEKRSK,2.41
9,FHALVREIRRKEKEAVLAMEKFSK,1.84
10,FHALVREIRRKEKEAVLAMEKDSK,1.8
11,FHALVREIRRKEKEAVLAMEKPSK,1.93
12,FHALVREIRRKEKEAVLAMEKSSK,1.42
13,FHALVREIRRKEKEAVLAMEKCSK,1.65
14,FHALVREIRRKEKEAVLAMEKTSK,2.3
15,FHALVEEIRRKEKEAVLAMEKKSK,1.55
16,FHALVSEIRRKEKEAVLAMEKKSK,2.06
17,FHALVCEIRRKEKEAVLAMEKKSK,2.07
18,FHALVIEIRRKEKEAVLAMEKKSK,2.22
19,FHALVAEIRRKEKEAVLAMEKKSK,1.34
20,FHALVREIRGKEKEAVLAMEKKSK,2.06
21,FHALVREIRLKEKEAVLAMEKKSK,1.55
22,FHALVREIRVKEKEAVLAMEKKSK,2.29
23,FHALVREIRHKEKEAVLAMEKKSK,2.18
24,FHAWVREIRRKEKEAVLAMEKKSK,1.77
25,FHARVREIRRKEKEAVLAMEKKSK,2.44

row,Variant,protein stability index
1,FHAHVREIRRKEKEAVLAMEKKSK,2.36
2,FHAAVREIRRKEKEAVLAMEKKSK,2.06
3,FHAPVREIRRKEKEAVLAMEKKSK,3.1
4,FHALVREIRRKEKEAVLAMSKKSK,2.53
5,FHALVREIRRKEKEAVLAMIKKSK,1.94
6,FHALVREIRRKEKEAVLAMPKKSK,2.42
7,FHALVREIRRKEKEAVLAMGKKSK,1.41
8,FHALVREIRRKYKEAVLAMEKKSK,2.69
9,FHALVREIRRKTKEAVLAMEKKSK,2.42
10,FHALVREIRRKAKEAVLAMEKKSK,3.79
11,FHALVREIRRKMKEAVLAMEKKSK,3.96
12,FHALVREIRRKRKEAVLAMEKKSK,2.06
13,FFALVREIRRKEKEAVLAMEKKSK,2.73
14,FDALVREIRRKEKEAVLAMEKKSK,3.76
15,FNALVREIRRKEKEAVLAMEKKSK,3.23
16,FKALVREIRRKEKEAVLAMEKKSK,2.73
17,FIALVREIRRKEKEAVLAMEKKSK,2.04
18,FSALVREIRRKEKEAVLAMEKKSK,1.96
19,FHALVREIRRKEKEAVLAMECKSK,1.99
20,FHALVREIRRKEKEAVLAMEYKSK,1.56
21,FHALVREIRRKEKEAVLAMEQKSK,2.66
22,FHALVREIRRKEKEAVLAMEPKSK,2.17
23,FHALVREIRRKEKEAVLAMEAKSK,1.9
24,FHALVREIRRKEKEAVLAMEEKSK,1.39

# Variants of: B2
# Assay: as above
# Conditions: c terminus: a fixed tail appended
row,Variant,protein stability index
1,MFFKDRFYMRTNPFYPEVELNYIS,2.94
2,MFFKDRFYMRTNPFYPEVELNHIS,2.16
3,MFFKDRFYMRTNPFYPEVELNIIS,3.29
4,MFFKDRFYMRTNPFYPEVELNSIS,1.67
5,MFFKDRFYMRTNPFYPEVELNLIS,3.27
6,MFFKDRFYMRTNPFYPEVELNNIS,2.15
7,MFFKDRFYMRTNPFYPEVELNQIS,1.9
8,MFFKDRFYMRTNPFYPEVELNKIS,1.83
9,MFFKDRFYMRTNPFYPEVELNVIS,2.92
10,MFFKDRFYMRTNPFYPEVELNCIS,2.19
11,MFFKDRFYMRTNPFYPEVELNDIS,1.31
12,MFFKDRFYMRTNPFYPEVELNGIS,2.22
13,MFFKDRFYMRTNPFYPEVELNPIS,2.18
14,MFFKDRFYMRTNPFYPEVELNRIS,2.69
15,MFFKDRFYMRTNPFYPEVELNTIS,1.65
16,MFFKDRFYMRTNPFYPEVELNMIS,2.32
17,MFFKDRFYMRTNPFYPEVELNWIS,2.09
18,MFFKDRFYMRTNPFYPEVELNAIS,2.48
19,MFFKDRFYMRTNPFYPEVELNEIS,2.38
20,MFFKDRFYMRTNPFYPEVELNFDS,2.65
21,MFFKDRFYMRTNPFYPEVELNFWS,3.27
22,MFFKDRFYMRTNPFYPEVELNFPS,3.27

row,Variant,protein stability index
1,MFFKDRFYMRTNPFYPEVELNFRS,3.09
2,MFFKDRFYMRTNPFYPEVELNFAS,2.47
3,MFFKDRFYMRTNPFYPEVELNFYS,1.75
4,MFFKDRFYMRTNPFYPEVELNFTS,1.56
5,MFFKDRFYMRTNPFYPEVELNFQS,2.34
6,MFFKDRFYMRTNPFYPEVELNFLS,3.31
7,MFFKDRFYMRTNPFYPEVELNFKS,2.16
8,MFFKDRFYMRTNPFYPEVELNFVS,3.61
9,MFFKDRFYMRTNPFYPEVELNFMS,3.28
10,MFFKDRFYMRTNPFYPEVELNFES,2.33
11,MFFKDRFYMRTNPFYPEVELNFFS,2.41
12,MFFKDRFYMRTNPFYPEVELNFCS,2.81
13,MFFKDRFYMRTNPFYPEVELNFNS,1.53
14,MFFKDRFYMRTNPFYPEVELNFSS,2.63
15,MFFKDRFYMRTNPFYPEVELNFHS,1.76
16,MFFKDRFYMRTNPFYPEVELNFGS,1.67
17,MFFKDRFYMRTNPFYPEVELPFIS,2.26
18,MFFKDRFYMRTNPFYPEVELYFIS,3.15
19,MFFKDRFYMRTNPFYPEVELWFIS,2.85
20,MFFKDRFYMRTNPFYPEVELTFIS,3.97
21,MFFKDRFYMRTNPFYPEVELSFIS,2.91
22,MFFKDRFYMRTNPFYPEVELRFIS,2.74

row,Variant,protein stability index
1,MFFKDRFYMRTNPFYPEVELVFIS,2.67
2,MFFKDRFYMRTNPFYPEVELQFIS,3.29
3,MFFKDRFYMRTNPFYPEVELNFIE,2.3
4,MFFKDRFYMRTNPFYPEVELNFIC,2.33
5,MFFKDRFYMRTNPFYPEVELNFIN,2.88
6,MFFKDRFYMRTNPFYPEVELNFIR,2.05
7,MFFKDRFYMRTNPFYPEVELNFIG,2.88
8,MFFKDRFYMRTNPFYPEVELNFIM,2.75
9,MFFKDRFYMRTNPFYPEVELNFIF,3.13
10,MFFKDRFYMRTNPFYPEVELNFIP,3.07
11,MFFKDRFYMRTNPFYPEVELNFIL,4.01
12,MFFKDRFYMRTNPFYPEVELNFIQ,2.87
13,MFFKDRFYMRTNPFYPEVELNFIK,2.83
14,MFFKDRFYMRTNPFYPEVELNFIV,3.21
15,MFFKDRFYMRTNPFYPEVELNFID,2.77
16,MFFKDRFYMRTNPFYPEVELNFIY,3.13
17,MFFKDRFYMRTNPFYPEVELNFIA,2.44
18,MFFKDRFYMRTNPFYPEVELNFIH,2.68
19,MFFKDRFYMRTNPFYPEVELNFIT,3.07
20,MFFKDRFYMRTNPFYPEVELNFIW,3.15
